B1: GLS3000 S27eI (antibody, name in Kabat numbering, V domains shown)
VH: QVQLVESGGGVVQPGRSLRLSCAASGFTFSNAWMHWVRQAPGKGLEWVAQIKAKSNNYATYYAESVKGRFTISRDDSKNSLYLQMNSLKTEDTAVYYCRYVHYGAYYGVDAWGQGTTVTVSS
VL: DIVMTQSPLSLPVTPGEPASISCRSSQSLVHINRNTYLHWYQQKPGQAPRLLIYKVSNRFSGVPDRFSGSGSGTDFTLKISRVEAEDVGVYYCGQGTQVPYTFGQGTKLEIK
notes: one-arm IgG as m2
B2: GLS3000 S27eN (antibody, name in Kabat numbering, V domains shown)
VH: QVQLVESGGGVVQPGRSLRLSCAASGFTFSNAWMHWVRQAPGKGLEWVAQIKAKSNNYATYYAESVKGRFTISRDDSKNSLYLQMNSLKTEDTAVYYCRYVHYGAYYGVDAWGQGTTVTVSS
VL: DIVMTQSPLSLPVTPGEPASISCRSSQSLVHNNRNTYLHWYQQKPGQAPRLLIYKVSNRFSGVPDRFSGSGSGTDFTLKISRVEAEDVGVYYCGQGTQVPYTFGQGTKLEIK
notes: one-arm IgG as m2
B3: GLS3000 S56D (antibody, name in Kabat numbering, V domains shown)
VH: QVQLVESGGGVVQPGRSLRLSCAASGFTFSNAWMHWVRQAPGKGLEWVAQIKAKSNNYATYYAESVKGRFTISRDDSKNSLYLQMNSLKTEDTAVYYCRYVHYGAYYGVDAWGQGTTVTVSS
VL: DIVMTQSPLSLPVTPGEPASISCRSSQSLVHSNRNTYLHWYQQKPGQAPRLLIYKVSNRFDGVPDRFSGSGSGTDFTLKISRVEAEDVGVYYCGQGTQVPYTFGQGTKLEIK
notes: one-arm IgG as m2
B4: GLS3000 S56E (antibody, name in Kabat numbering, V domains shown)
VH: QVQLVESGGGVVQPGRSLRLSCAASGFTFSNAWMHWVRQAPGKGLEWVAQIKAKSNNYATYYAESVKGRFTISRDDSKNSLYLQMNSLKTEDTAVYYCRYVHYGAYYGVDAWGQGTTVTVSS
VL: DIVMTQSPLSLPVTPGEPASISCRSSQSLVHSNRNTYLHWYQQKPGQAPRLLIYKVSNRFEGVPDRFSGSGSGTDFTLKISRVEAEDVGVYYCGQGTQVPYTFGQGTKLEIK
notes: one-arm IgG as m2
B5: GLS3000 S52P (antibody, name in Kabat numbering, V domains shown)
VH: QVQLVESGGGVVQPGRSLRLSCAASGFTFSNAWMHWVRQAPGKGLEWVAQIKAKSNNYATYYAESVKGRFTISRDDSKNSLYLQMNSLKTEDTAVYYCRYVHYGAYYGVDAWGQGTTVTVSS
VL: DIVMTQSPLSLPVTPGEPASISCRSSQSLVHSNRNTYLHWYQQKPGQAPRLLIYKVPNRFSGVPDRFSGSGSGTDFTLKISRVEAEDVGVYYCGQGTQVPYTFGQGTKLEIK
notes: one-arm IgG as m2
B6: GLS3000 S27eV (antibody, name in Kabat numbering, V domains shown)
VH: QVQLVESGGGVVQPGRSLRLSCAASGFTFSNAWMHWVRQAPGKGLEWVAQIKAKSNNYATYYAESVKGRFTISRDDSKNSLYLQMNSLKTEDTAVYYCRYVHYGAYYGVDAWGQGTTVTVSS
VL: DIVMTQSPLSLPVTPGEPASISCRSSQSLVHVNRNTYLHWYQQKPGQAPRLLIYKVSNRFSGVPDRFSGSGSGTDFTLKISRVEAEDVGVYYCGQGTQVPYTFGQGTKLEIK
notes: one-arm IgG as m2
B7: GLS3000 S52A (antibody, name in Kabat numbering, V domains shown)
VH: QVQLVESGGGVVQPGRSLRLSCAASGFTFSNAWMHWVRQAPGKGLEWVAQIKAKSNNYATYYAESVKGRFTISRDDSKNSLYLQMNSLKTEDTAVYYCRYVHYGAYYGVDAWGQGTTVTVSS
VL: DIVMTQSPLSLPVTPGEPASISCRSSQSLVHSNRNTYLHWYQQKPGQAPRLLIYKVANRFSGVPDRFSGSGSGTDFTLKISRVEAEDVGVYYCGQGTQVPYTFGQGTKLEIK
notes: one-arm IgG as m2
B8: GLS3000 S27eQ (antibody, name in Kabat numbering, V domains shown)
VH: QVQLVESGGGVVQPGRSLRLSCAASGFTFSNAWMHWVRQAPGKGLEWVAQIKAKSNNYATYYAESVKGRFTISRDDSKNSLYLQMNSLKTEDTAVYYCRYVHYGAYYGVDAWGQGTTVTVSS
VL: DIVMTQSPLSLPVTPGEPASISCRSSQSLVHQNRNTYLHWYQQKPGQAPRLLIYKVSNRFSGVPDRFSGSGSGTDFTLKISRVEAEDVGVYYCGQGTQVPYTFGQGTKLEIK
notes: one-arm IgG as m2
B9: GLS3000 S27eT (antibody, name in Kabat numbering, V domains shown)
VH: QVQLVESGGGVVQPGRSLRLSCAASGFTFSNAWMHWVRQAPGKGLEWVAQIKAKSNNYATYYAESVKGRFTISRDDSKNSLYLQMNSLKTEDTAVYYCRYVHYGAYYGVDAWGQGTTVTVSS
VL: DIVMTQSPLSLPVTPGEPASISCRSSQSLVHTNRNTYLHWYQQKPGQAPRLLIYKVSNRFSGVPDRFSGSGSGTDFTLKISRVEAEDVGVYYCGQGTQVPYTFGQGTKLEIK
notes: one-arm IgG as m2
B10: GLS3000 S52Y (antibody, name in Kabat numbering, V domains shown)
VH: QVQLVESGGGVVQPGRSLRLSCAASGFTFSNAWMHWVRQAPGKGLEWVAQIKAKSNNYATYYAESVKGRFTISRDDSKNSLYLQMNSLKTEDTAVYYCRYVHYGAYYGVDAWGQGTTVTVSS
VL: DIVMTQSPLSLPVTPGEPASISCRSSQSLVHSNRNTYLHWYQQKPGQAPRLLIYKVYNRFSGVPDRFSGSGSGTDFTLKISRVEAEDVGVYYCGQGTQVPYTFGQGTKLEIK
notes: one-arm IgG as m2
B11: GLS3000 S27eR (antibody, name in Kabat numbering, V domains shown)
VH: QVQLVESGGGVVQPGRSLRLSCAASGFTFSNAWMHWVRQAPGKGLEWVAQIKAKSNNYATYYAESVKGRFTISRDDSKNSLYLQMNSLKTEDTAVYYCRYVHYGAYYGVDAWGQGTTVTVSS
VL: DIVMTQSPLSLPVTPGEPASISCRSSQSLVHRNRNTYLHWYQQKPGQAPRLLIYKVSNRFSGVPDRFSGSGSGTDFTLKISRVEAEDVGVYYCGQGTQVPYTFGQGTKLEIK
notes: one-arm IgG as m2
B12: GLS3000 S52D (antibody, name in Kabat numbering, V domains shown)
VH: QVQLVESGGGVVQPGRSLRLSCAASGFTFSNAWMHWVRQAPGKGLEWVAQIKAKSNNYATYYAESVKGRFTISRDDSKNSLYLQMNSLKTEDTAVYYCRYVHYGAYYGVDAWGQGTTVTVSS
VL: DIVMTQSPLSLPVTPGEPASISCRSSQSLVHSNRNTYLHWYQQKPGQAPRLLIYKVDNRFSGVPDRFSGSGSGTDFTLKISRVEAEDVGVYYCGQGTQVPYTFGQGTKLEIK
notes: one-arm IgG as m2
B13: GLS3000 S27eW (antibody, name in Kabat numbering, V domains shown)
VH: QVQLVESGGGVVQPGRSLRLSCAASGFTFSNAWMHWVRQAPGKGLEWVAQIKAKSNNYATYYAESVKGRFTISRDDSKNSLYLQMNSLKTEDTAVYYCRYVHYGAYYGVDAWGQGTTVTVSS
VL: DIVMTQSPLSLPVTPGEPASISCRSSQSLVHWNRNTYLHWYQQKPGQAPRLLIYKVSNRFSGVPDRFSGSGSGTDFTLKISRVEAEDVGVYYCGQGTQVPYTFGQGTKLEIK
notes: one-arm IgG as m2
B14: GLS3000 S27eY (antibody, name in Kabat numbering, V domains shown)
VH: QVQLVESGGGVVQPGRSLRLSCAASGFTFSNAWMHWVRQAPGKGLEWVAQIKAKSNNYATYYAESVKGRFTISRDDSKNSLYLQMNSLKTEDTAVYYCRYVHYGAYYGVDAWGQGTTVTVSS
VL: DIVMTQSPLSLPVTPGEPASISCRSSQSLVHYNRNTYLHWYQQKPGQAPRLLIYKVSNRFSGVPDRFSGSGSGTDFTLKISRVEAEDVGVYYCGQGTQVPYTFGQGTKLEIK
notes: one-arm IgG as m2
B15: GLS3000 S27eK (antibody, name in Kabat numbering, V domains shown)
VH: QVQLVESGGGVVQPGRSLRLSCAASGFTFSNAWMHWVRQAPGKGLEWVAQIKAKSNNYATYYAESVKGRFTISRDDSKNSLYLQMNSLKTEDTAVYYCRYVHYGAYYGVDAWGQGTTVTVSS
VL: DIVMTQSPLSLPVTPGEPASISCRSSQSLVHKNRNTYLHWYQQKPGQAPRLLIYKVSNRFSGVPDRFSGSGSGTDFTLKISRVEAEDVGVYYCGQGTQVPYTFGQGTKLEIK
notes: one-arm IgG as m2
B16: GLS3000 S27eP (antibody, name in Kabat numbering, V domains shown)
VH: QVQLVESGGGVVQPGRSLRLSCAASGFTFSNAWMHWVRQAPGKGLEWVAQIKAKSNNYATYYAESVKGRFTISRDDSKNSLYLQMNSLKTEDTAVYYCRYVHYGAYYGVDAWGQGTTVTVSS
VL: DIVMTQSPLSLPVTPGEPASISCRSSQSLVHPNRNTYLHWYQQKPGQAPRLLIYKVSNRFSGVPDRFSGSGSGTDFTLKISRVEAEDVGVYYCGQGTQVPYTFGQGTKLEIK
notes: one-arm IgG as m2
B17: GLS3000 S27eM (antibody, name in Kabat numbering, V domains shown)
VH: QVQLVESGGGVVQPGRSLRLSCAASGFTFSNAWMHWVRQAPGKGLEWVAQIKAKSNNYATYYAESVKGRFTISRDDSKNSLYLQMNSLKTEDTAVYYCRYVHYGAYYGVDAWGQGTTVTVSS
VL: DIVMTQSPLSLPVTPGEPASISCRSSQSLVHMNRNTYLHWYQQKPGQAPRLLIYKVSNRFSGVPDRFSGSGSGTDFTLKISRVEAEDVGVYYCGQGTQVPYTFGQGTKLEIK
notes: one-arm IgG as m2
B18: GLS3000 S56F (antibody, name in Kabat numbering, V domains shown)
VH: QVQLVESGGGVVQPGRSLRLSCAASGFTFSNAWMHWVRQAPGKGLEWVAQIKAKSNNYATYYAESVKGRFTISRDDSKNSLYLQMNSLKTEDTAVYYCRYVHYGAYYGVDAWGQGTTVTVSS
VL: DIVMTQSPLSLPVTPGEPASISCRSSQSLVHSNRNTYLHWYQQKPGQAPRLLIYKVSNRFFGVPDRFSGSGSGTDFTLKISRVEAEDVGVYYCGQGTQVPYTFGQGTKLEIK
notes: one-arm IgG as m2
B19: GLS3000 S56A (antibody, name in Kabat numbering, V domains shown)
VH: QVQLVESGGGVVQPGRSLRLSCAASGFTFSNAWMHWVRQAPGKGLEWVAQIKAKSNNYATYYAESVKGRFTISRDDSKNSLYLQMNSLKTEDTAVYYCRYVHYGAYYGVDAWGQGTTVTVSS
VL: DIVMTQSPLSLPVTPGEPASISCRSSQSLVHSNRNTYLHWYQQKPGQAPRLLIYKVSNRFAGVPDRFSGSGSGTDFTLKISRVEAEDVGVYYCGQGTQVPYTFGQGTKLEIK
notes: one-arm IgG as m2
B20: GLS3000 S52Q (antibody, name in Kabat numbering, V domains shown)
VH: QVQLVESGGGVVQPGRSLRLSCAASGFTFSNAWMHWVRQAPGKGLEWVAQIKAKSNNYATYYAESVKGRFTISRDDSKNSLYLQMNSLKTEDTAVYYCRYVHYGAYYGVDAWGQGTTVTVSS
VL: DIVMTQSPLSLPVTPGEPASISCRSSQSLVHSNRNTYLHWYQQKPGQAPRLLIYKVQNRFSGVPDRFSGSGSGTDFTLKISRVEAEDVGVYYCGQGTQVPYTFGQGTKLEIK
notes: one-arm IgG as m2
B21: GLS3000 S27eL (antibody, name in Kabat numbering, V domains shown)
VH: QVQLVESGGGVVQPGRSLRLSCAASGFTFSNAWMHWVRQAPGKGLEWVAQIKAKSNNYATYYAESVKGRFTISRDDSKNSLYLQMNSLKTEDTAVYYCRYVHYGAYYGVDAWGQGTTVTVSS
VL: DIVMTQSPLSLPVTPGEPASISCRSSQSLVHLNRNTYLHWYQQKPGQAPRLLIYKVSNRFSGVPDRFSGSGSGTDFTLKISRVEAEDVGVYYCGQGTQVPYTFGQGTKLEIK
notes: one-arm IgG as m2

Molecular target: T1, CD3 epsilon homodimer protein (UniProt P07766 23-126)
T1 construct: also called CD3 (CD3 epsilon)
Assay: SPR Biacore T200, CD3e homodimer on chip, vs unaltered GLS3000 antibody

T1 sequence (P07766 23-126): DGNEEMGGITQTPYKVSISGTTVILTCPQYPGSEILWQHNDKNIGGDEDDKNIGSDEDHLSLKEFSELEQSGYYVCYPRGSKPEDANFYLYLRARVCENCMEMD

In order of falling “ratio of amounts bound (Z=Y/X)” value:
1. B15  1.59
2. B11  1.58
3. B13  1.55
4. B18  1.32
5. B16  1.26
6. B17  1.23
7. B14  1.2
8. B21  1.17
9. B2  1.16
10. B19  1.16
11. B10  1.12
12. B8  1.1
13. B6  1.08
14. B1  1.07
15. B20  1.05
16. B9  0.97
17. B7  0.93
18. B3  0.77
19. B4  0.71
20. B12  0.63
21. B5  0.33

From patent publication US20210388087A1 (Chugai, published 2021)
